Source: patent US20140134690A1, “MICROBES AND METHODS FOR PRODUCING 1-PROPANOL” (University of Georgia Research Foundation, Inc., priority 2012, published 2014)

Columns and labels:
Assay in all cases: cells, lysate or membranes named
[1] = substrate: CC(=O)C=O; assay type: biochemical, E. coli; settings: other: substrate methylglyoxal 20-120 mM, 0.25 mM NADH, crude extract, imidazole-HCl pH 7.0, 37° C.
Method: When the gene is over-expressed by pRJ10, the specific activity was determined to be 1.62±0.012 U/mg.

[2] = substrate: O=C(CO)COP(=O)(O)O; assay type: biochemical, T. thermophilus; settings: other: substrate dihydroxyacetone phosphate 0.15-1.5 mM, crude extract, imidazole-HCl pH 7.0, 30° C.
From the text: (§1) 1,2-Propanediol pathway branches from glycolysis and competes for the intermediate dihydroxyacetone phosphate, with the glycolytic pathway. […] We amplified the mgsA genes from the microorganisms: C. acetobutylicum (ATCC#824), B. subtilis 168, C. difficile R20291, E. coli MG1655, T. thermophilus HB27, K. pneumoniae MGH78578, P. fluorescens Pf-5, and R. eutropha H16 respectively. These genes were cloned and expressed in wild type E. coli BW25113 using eight plasmids pRJ1-pRJ8. Each gene was under the control of the IPTG-inducible pLlacO1 promoter. Using dihydroxyacetone-phosphate as the substrate, we successfully detected the functional expression of all mgsA genes in vitro, where the specific activities varied from 0.0052 U/mg to 0.1242 U/mg (Table 1). […] Without the over-expression of mgsA gene, we also detected the native expression of E. coli mgsA, which gave a specific activity of only 0.0008 U/mg, much lower than that of any over-expression.
(§2) Using the primers listed in Table 5, the mgsA genes were PCR amplified from the genomic DNA of C. acetobutylicum (ATCC824), B. subtilis 168, Clostridium difficile R20291, E. coli MG1655, Thermus thermophilus HB27, K. pneumoniae MGH78578, Pseudomonas fluorescens Pf-5, and Ralstonia eutropha H16 respectively. […]
(§3) The assay was carried out using a two-step procedure. […] The samples were diluted 10 times before measuring the absorbance at 550 nm.

[3] = substrate: O=C(CO)COP(=O)(O)O; assay type: biochemical, P. fluorescens; settings: other: substrate dihydroxyacetone phosphate 0.15-1.5 mM, crude extract, imidazole-HCl pH 7.0, 30° C.
From the text: as §1, §2, §3

[4] = substrate: O=C(CO)COP(=O)(O)O; assay type: biochemical, R. eutropha; settings: other: substrate dihydroxyacetone phosphate 0.15-1.5 mM, crude extract, imidazole-HCl pH 7.0, 30° C.
From the text: as §1, §2, §3

[5] = substrate: O=C(CO)COP(=O)(O)O; assay type: biochemical, C. acetobutylicum; settings: other: substrate dihydroxyacetone phosphate 0.15-1.5 mM, crude extract, imidazole-HCl pH 7.0, 30° C.
From the text: as §1, §2, §3

[6] = substrate: O=C(CO)COP(=O)(O)O; assay type: biochemical, B. subtilis; settings: other: substrate dihydroxyacetone phosphate 0.15-1.5 mM, crude extract, imidazole-HCl pH 7.0, 30° C.
From the text: as §1, §2, §3

B1: E. coli MG1655 methylglyoxal reductase (ydjG), wild type (Escherichia coli K-12) (protein)
chain: MKKIPLGTTDITLSRMGLGTWAIGGGPAWNGDLDRQICIDTILEAHRCGINLIDTAPGYNFGNSEVIVGQALKKLPREQVVVETKCGIVWERKGSLFNKVGDRQLYKNLSPESIREEVAASLQRLGIDYIDIYMTHWQSVPPFFTPIAETVAVLNELKSEGKIRAIGAANVDADHIREYLQYGELDIIQAKYSILDRAMENELLPLCRDNGIVVQVYSPLEQGLLTGTITRDYVPGGARANKVWFQRENMLKVIDMLEQWQPLCARYQCTIPTLALAWILKQSDLISILSGATAPEQVRENVAALNINLSDADATLMREMAEALER
Km [1]: 3310 ± 20 µM

B2: Thermus thermophilus HB27 methylglyoxal synthase (mgsA), wild type (Thermus thermophilus HB27) (protein)
chain: MKALALIAHDAKKDEMVAFCLRHKDVLARYPLLATGTTGARIQEATGLAVERVLSGPLGGDLQIGARVAEGKVLAVVFLQDPLTAKPHEPDVQALMRVCNVHGVPLATNLVAAEALIAWIRKGTPQ
Km [2]: 2118 ± 70 µM

B3: Pseudomonas fluorescens Pf-5 methylglyoxal synthase (mgsA), wild type (Pseudomonas protegens Pf-5) (protein)
chain: MIGISFTHKTMAARKRIALVAHDHCKAFLLEWAGRQKARLAEHELVATGTTGLLLSKHLGLPVESMISGPLGGDQQLGAQIAEQRVDLLVFFWDPFEPQPHDPDIKALLRVAAVWNIPVACNECSADYLLSSPLMNQAHEHRIPDYQAYLAGRG
Km [3]: 1560 ± 20 µM

B4: Ralstonia eutropha H16 methylglyoxal synthase (mgsA), wild type (Cupriavidus necator H16) (protein)
chain: MTRPRIALIAHDHKKDDIVAFATRHRAFLSQCELLATGTTGGRLIDEVGLEVTRMLSGPWGGDLQIGAQLAVGLVRAVVFLRDPMTPQPHEPDINALVRACDVHNVPCATNVATAELLIAGLAREVDEAAAS
Km [4]: 700 ± 30 µM

B5: Clostridium acetobutylicum (ATCC 824) methylglyoxal synthase (mgsA), wild type (Clostridium acetobutylicum ATCC 824) (protein)
chain: MNSKKKIALVAHDNRKKALISWCEANSEVLSNHSLCGTGTTAKLIKEATGLEVFPYKSGPMGGDQQIGAAIVNEDIDFMIFFWDPLTAQPHDPDVKALLRISVLYDIPIAMNESTAEFLIKSPIMKEQHERHIIDYYQKIRKDNF
Km [5]: 776 ± 5 µM

B6: Bacillus subtilis 168 methylglyoxal synthase (mgsA), wild type (Bacillus subtilis subsp. subtilis str. 168) (protein)
chain: MKIALIAHDKKKQDMVQFTTAYRDILKNHDLYATGTTGLKIHEATGLQIERFQSGPLGGDQQIGALIAANALDLVIFLRDPLTAQPHEPDVSALIRLCDVYSIPLATNMGTAEILVRTLDEGVFEFRDLLRGEEPNV
Km [6]: 473 ± 70 µM
